The target in test [1] is poly-specificity reagent (PSR): detergent solubilized CHO cell membrane proteins. Description: flow cytometry PSR assay: test article on Protein A coated beads, biotinylated PSR, read-out with SA-PE. A general note: In flow cytometry, cells or beads pass a laser one at a time.
Test [2] has the same target. The test is described as follows: flow cytometry PSR assay: test article captured on protein A beads, biotinylated PSR detected with streptavidin-PE, anti-human Fc for expression; control panel without PSR (FIG. 71C) prints Q2 0.020.
For test [3] the target is unchanged. The test is described as follows: flow cytometry PSR assay: test article captured on protein A beads, biotinylated PSR detected with streptavidin-PE, anti-human Fc for expression; control panel without PSR (FIG. 71D) prints Q2 0.019.
The target is the same in test [4]. Description: PSR assay: molecule on protein A beads, biotinylated PSR, SA-PE read out by flow cytometry; + PSR panel.
The target in test [5] is human BAFF-R (B cell-activating factor receptor) expressed on cells (human) (UniProt Q96RJ3). Description: BAFF-biotin blocking, flow cytometry, hBAFF-R CHO cells; competitor BAFF-biotin.
For test [6] the target is unchanged. Description: cell-based or functional assay.

Rituximab (antibody): in test [1], the percent of events in Q2 (Expression-FITC positive, Binding-PE positive), + PSR worked out at 56.2%.
Regarding trastuzumab (antibody), the percent of events in Q2 (Expression-FITC positive, Binding-PE positive), + PSR in test [1] amounted to 0.087%. Also, the events in quadrant Q2 (Expression-FITC positive, Binding-PE positive), + PSR in test [2] is 0.067%.
For the substance “Ixekizumab (PSR positive control) (antibody)”, the events in quadrant Q2 (Expression-FITC positive, Binding-PE positive), + PSR in test [3] was 79.6%.
As to Ixekuzumab (antibody), in test [4], the % of events in quadrant Q2 (PSR binding+) was 27.1%.
For Ixekizumab (antibody), in test [1], the percent of events in Q2 (Expression-FITC positive, Binding-PE positive), + PSR is 79.6%.
In test [5], Human IgG1k (antibody) displayed a Minimum (MFI) of 68000 MFI.
With “F3′ isotype control (F3′-palivizumab) (bispecific antibody)”, in test [6], the KHYG-1-CD16a cytotoxicity on BJAB cells, Max killing (%) is 48%.

These data come from patent US20240270861A1.
